Results from the supplement of paper PMC9170038.

Experiments:
[1] = system: MS2 coat protein; assay: apparent KD of MS2 coat protein; designed switch direction (-1 OFF switch, 1 ON switch): 1; higher = weaker reporter binding; conditions: Eterna round: R98
Procedure: (§1)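 RNA-MaP: designed FMN/MS2 RNA switches (84 nt design region) are transcribed on-chip within common flanks and titrated with SNAP-549-labelled MS2 coat protein (about 1-3000 nM) in 100 mM Tris pH 7.5, 80 mM KCl, 4 mM MgCl2, without or with 200 uM FMN. Median apparent KD per design; activation ratio = KD,OFF / KD,ON.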

[2] = system: MS2 coat protein; assay: apparent KD of MS2 coat protein; higher = weaker reporter binding; conditions: Eterna round: R101
Procedure: as §1

Row | Sequence | apparent KD of MS2 coat protein ([1]; input ligand: FMN 200 uM) | apparent KD of MS2 coat protein ([1]; input ligand: none) | apparent KD of MS2 coat protein ([2]; input ligand: FMN 200 uM) | apparent KD of MS2 coat protein ([2]; input ligand: none)
1 | GUAGCAUACCGAGGAUAUUCAUAUAAUAAAUAAACAUGAGGAUCACCCAUGUGGCGAAAGCCUAGGGAGAAGGCGGAAUGCUAG [salish99_SSNG2_r2_003] | 22.1 nM | 248 nM | – | –
2 | UGGACCAAUACAGGAUAUGGUGACGCACAUGAGGAUCACCCAUGUCCGCAGCGUGCUCAGCACGCCCAGAAGGGUAUUGAUUCA [Tereriesti] | 74.5 nM | 671 nM | – | –
3 | GUAGCAUACCGAGGAUAUUCAUAUAAUAAAUAAACAUGAGGAUCACCCAUGUGGCGAAAGCCUAGGGAGAAGGCGGAAUGCUAU [salish99_SSNG2_r2_110] | 24.2 nM | 171 nM | – | –
4 | CACUCAAGGUGAGGAUAUGCACAGGAUCACCGUGUAGAAGGCAUCAGGUAGAAGGUGCAGAGGAUCACCCUGUAAGGAUAUAUC [pwkr2 ssNG1 DX.11] | 334 nM | 867 nM | – | –
5 | AUAGCAUACCGAGGAUAUUCAUAUAAUAAAUAAACAUGAGGAUCACCCAUGUGGCGAAAGCCUAGGGAGAAGGCGGAAUGCUAG [salish99_SSNG2_r2_101] | 29.9 nM | 237 nM | – | –
6 | CUAAUUUAUUGAGGAUAUGCACAGGAUCACCGUGUAGAAGGCAUCAGGGAGAAGGUGCAGAGGAUCACCCUGUAAGGAUAUCAA [pwkr2 ssNG1 DX.3] | 105 nM | 231 nM | – | –
7 | CUAGCAUACCGAGGAUAUUCAUAUAAUAAAUAAACAUGAGGAUCACCCAUGUGGCGAAAGCCUAGGGAGAAGGCGGAAUGCUAG [salish99_SSNG2_r2_004] | 20.1 nM | 212 nM | – | –
8 | CCGGAAACGGGUAGCUGACAUGAGGAUCACCCAUGUGAAUCUGAGGAUAUGGAUGGUAAUUCCAUCCAGAAGGCAGUCAGCUAC [Mat - Same State NG 3 - JL Mod - D82] | 59.1 nM | 551 nM | – | –
9 | CACCUAAAUCCUAGAGGAUCACCCUAGGAUAUCACCGUCGAGGUGCCAUAAUGGCACCUCGACGGUGAGAAGGAGGGUGAAAUA [#SharedSequence - SLExNG3: 8] (puzzle (switch architecture): Small Loop Exclusion NG 3) | – | – | 6.49 nM | 5.08 nM
10 | UCAGUAGAGUCAGGAUAUACAAAAGGCGAUCCAUACAUGAGGAUCACCCAUGUAGAAGGGACUCUACUGUAAGUCGGAAACGAC [#StaticStemDeletion - Eli x2 4.003] (puzzle (switch architecture): Small Loop Exclusion NG 1) | – | – | 11.6 nM | 165 nM
11 | UAUUAUAUGGAGAAGGACAUGAGGAUCACCCAUGUCGCCGGGCCCGGGAAACCGGGCCCGGCCAUGUAGGAUAUCCAUAUGGUA [#This is a good prank 6] (puzzle (switch architecture): Inverted Exclusion NG 2) | – | – | 5.41 nM | 4.78 nM
12 | CACCUAAAUCCUAGAGGAUCACCCUAGGAUAUCACCGUCGAGGUGCCAUAAUGGCACCUCGACGGUGAGAAGGAGGAAAAAUAA [#SharedSequence - SLExNG3: 10] (puzzle (switch architecture): Small Loop Exclusion NG 3) | – | – | 5.85 nM | 4.95 nM
13 | CUUACUUUGUAGAAGGGUGACAUGAGGAUCACCCAUGUGCGUCGCCUGGAAGACCAGGGUACGCCACAGGAUAUACAAAGUAAG [Gesoesla] (puzzle (switch architecture): Inverted Same State NG 2) | – | – | 113 nM | 119 nM
14 | UCAUUUAUCACAGGAUAUAUUAGUAUACAGUUGUUUGGUUAUUACAUAUUAAUAGAAGGGUGAAACAUGAGGAUCACCCAUGUA [S-loop S-stateNG1 03] (puzzle (switch architecture): Small Loop Same State NG 1) | – | – | 113 nM | 367 nM
15 | AAAGAUUUUUAAGGAUAUCAGUGGCAAAGCCACUGAGAAGGUGAGGAUCACCCACCUACGUGACGCUGGAAACAGCGUCACGAA [#SharedSequence ExNG1 - 25] (puzzle (switch architecture): Exclusion NG 1) | – | – | 12.7 nM | 13 nM
16 | GCAGCUAAUGCAGGAUAUCAGCACGUGUAGUGCUGAGAAGGGCACAUGAGGAUUCUGACUGUGAUCAAUUAAUAUUAAUGCUGC [salish99#hingeEx3_55-58_005] (puzzle (switch architecture): Exclusion NG 1) | – | – | 14.8 nM | 29.2 nM

Row | Sequence | apparent KD of MS2 coat protein ([1]; input ligand: FMN 200 uM) | apparent KD of MS2 coat protein ([1]; input ligand: none) | apparent KD of MS2 coat protein ([2]; input ligand: FMN 200 uM) | apparent KD of MS2 coat protein ([2]; input ligand: none)
17 | UAAAUAAAUCCUAGAGGAUCACCCUAGGAUAUCACCGUCGAGGUGCCAUAAUGGCACCUCGACGGUGAGAAGGAGGAAAAUAAA [#SharedSequence - SLExNG3: 4] (puzzle (switch architecture): Small Loop Exclusion NG 3) | – | – | 6.64 nM | 6.46 nM
18 | UCUUAAUUGUAGAAGGGUGACAUGAGGAUCACCCAUGUGCACGCGCGAUUUACGGCGCGCGUGCCACAGGAUAUACAGUUGGGU [Erinquve] (puzzle (switch architecture): Inverted Same State NG 2) | – | – | 12.1 nM | 41.1 nM
19 | GGGUACAUCGGAGGAUAUCAUGUAAAUACAUGAGGAUCACCCAUGUCGAUGGAGACAUGGGAGAUUGAGAAGGCCGAUGUACCG (puzzle (switch architecture): Same State NG 2) | – | – | 31.7 nM | 22.5 nM
20 | GCAGCUAAUGCAGGAUAUCAGCACGUGUAGUGCUGAGAAGGGCACAUGAGGAUCACCCAUGUGAUCAAUUAAUAUUAAUGCUGC [jl-eng1-3.00 #ENG1/11-B3_NECK] (puzzle (switch architecture): Exclusion NG 1) | – | – | 41.6 nM | 13 nM
21 | CGCUAUUACAUGAGGAUCACCCAUGUAUAUAUGGGAUUUUCGUAGGAUAUGCAGAAGAUUAAAGUGCAGAAGGACGGAAUAGCG [JR #DistanceClose #Static #NP SSNG3 Sub066] (puzzle (switch architecture): Same State NG 3) | – | – | 31.9 nM | 46.9 nM
22 | CGCAUAGACAUGAGGAUCACCCAUGUAUAAAUAGGAUUAACGUAGGAUAUGCAGAAGAUUAAAGUGCAGAAGGACGGCUUUGCG [JR #DistanceFar #NP SSNG3 Sub070] (puzzle (switch architecture): Same State NG 3) | – | – | 7.52 nM | 11.5 nM
23 | GGUCGUCACAUUAACAUGAGGAUCACCCAUGUCAAAAGACAUGAGGAUAUGCAUCCUAAUUGGAUGCAGAAGGCAUGGACGACC (puzzle (switch architecture): Same State NG 3) | – | – | 12.5 nM | 216 nM
24 | GAAAUAUAGUCAGGAUAUCAGGACAUGAGGAUCACCCAUGUACUGAAUGGGCUGGUGAAAAGAGAUGAGAAGGGACACACUAGA [EternaBot874] (puzzle (switch architecture): Exclusion NG 2) | – | – | 5.79 nM | –
25 | AAAGAUUUUUAAGGAUAUGACUCCGAAACGGAGUCAGAAGGUGAGGAUCACCCAUCUAGCUCAGGGUCGAAAGACCCUGAGCAA [#SharedSequence - ExNG1-15] (puzzle (switch architecture): Exclusion NG 1) | – | – | 78.3 nM | 43.6 nM
26 | GGAGAAACAUGAGGAUCACCCAUGUAGGAUAUCGGGCCCGGGCCCGGCGAAAGCCGGGCCCGGGACGAGAAGGGCGUAAACACC [#LOL] (puzzle (switch architecture): Small Loop Exclusion NG 3) | – | – | 8.72 nM | 8.74 nM
27 | CCUGCACCUCAAGGAUAUCCAGUCGUUUCGACUGGAGAAGGUGAGGAUCACCCAUCUAGCCUGACGUUUGUCAGGCAUGCAGGU [#AddUracilToBrourdLoops 5 - Jieux - Exclusion NG1] (puzzle (switch architecture): Exclusion NG 1) | – | – | 929 nM | 398 nM
28 | AGAGCUGCUCAGAAGGAGGAUCACCCUUUCGAAAGAAAUACGGAGGCUGAAAAGCCUCCGAGAUUUUAGGAUAUGAGCAGCUCA [#SharedSequence - IExNG2: 8] (puzzle (switch architecture): Inverted Exclusion NG 2) | – | – | 89.1 nM | 74.5 nM
29 | AAUAAUCUUUAAGGAUAUGACUCCGAAACGGAGUCAGAAGGUGAGGAUCACCCACCUAGCUCAGGGUCGAAAGACCCUGAGCAA [#SharedSequence - ExNG1-9] (puzzle (switch architecture): Exclusion NG 1) | – | – | 10.6 nM | 9.5 nM
30 | UAUAAUCUUUAAGGAUAUCAGUGGCUUUGCCACUGAGAAGGUGAGGAUCACCCACCUACGUGACCCUGGUUUCAGGGUCACGAU [#AddUracilToBrourdLoops 10 - Jieux - Exclusion NG1] (puzzle (switch architecture): Exclusion NG 1) | – | – | 11.6 nM | 10 nM
31 | UAAUCUCGAGCCGACGGGAGAUUACAUGAGGAUCACCCAUGUGAGGAUAUCCCUGAGAAGACGGCGGAGAAGGCACUGGGUAGG [Diraoran] (puzzle (switch architecture): Exclusion NG 3) | – | – | 18.3 nM | 9.79 nM
32 | AAGUACAAGCAGAAGGCACAUGAGGAUCACCCAUGUCGGGCGUCCUGUAAGUGAGGAUAUGCUAAGUGACGGCCGCCUUGGCGG [Adienare] (puzzle (switch architecture): Inverted Small Loop Exclusion NG 1) | – | – | 22.6 nM | 383 nM
